Assay results: US7892775B2, “Fluorescence assay for kinase activity” (Massachusetts Institute of Technology, priority 2003, dated 2011)
Marks after values point to notes of the source that are not given here. Sox = metal binding amino acid

Key:
[1] = biological target: T1, cAMP-dependent Protein Kinase (Catalytic Subunit) (Mus musculus, UniProt P05132); test: Continuous fluorescence kinase assay, kinetic constants of Sox peptide substrate with PKA; assay type: biochemical; settings: 20 mM HEPES pH 7.4, 10 mM MgCl2, 1 mM ATP, 1 mM DTT, 40 units PKA, 30° C.; average of four Hanes plots
T1 construct: purchased Calbiochem
Description: A typical reaction contained solution 5 (90 μl), solution 6 (20 μl), solution 7 (1 μl) and an appropriate volume of substrate stock solution. Enzyme working stock (1 μl) was added to begin the reaction.
5 nm emission and excitation slit widths were used.
Substitution of (2) into (I) followed by rearrangement, yields: […]

[2] = biological target: Protein Kinase Cα (Homo sapiens, UniProt P17252); settings: 20 mM HEPES pH 7.4, 10 mM MgCl2, 0.3 mM CaCl2, 1 mM ATP, 0.7 nM PKCα, 30° C.; average of four Hanes plots
Description: PKC: On the day of the assay, a 1 μl aliquot of Protein Kinase Cα (Human, Recombinant, Calbiochem) was diluted with 20 μl of solution 4 and stored on ice. A typical reaction contained solution 4 (84 μl), solution 6 (19 μl), solution 8 (5 μl), solution 7 (1 μl), and enzyme working stock (1 μl). An appropriate volume of substrate stock solution was added to begin the reaction.
Fluorescence experiments were performed on a Fluoromax 3 from Jobin Yvon. 5 nm emission and excitation slit widths were used. For all experiments, an excitation wavelength of 360 nm was used. Enzyme assays were performed by monitoring emission at 485 nm.
To solve for Km and Vmax for this reaction, determination of the initial rate of product formation from the increase in fluorescence intensity is necessary. With this sensor, a correction for the decrease in fluorescence intensity due to the starting material being consumed is needed to determine the rate of product formation from the initial slope. The fluorescence intensity at any given point can be determined from the following equation: I(t)=fSS(t)+fPP(t) (1) where I(t) is the fluorescence intensity, S(t) is the amount of substrate in μM, P(t) is the amount of product in μM, fS is the fluorescence intensity per μM) of substrate, and fP is fluorescence intensity per μM of product. The amount of substrate and product at any given point are related by: S(t)+P(t)=S0 (2) where S0 is the initial amount of substrate. Substitution of (2) into (I) followed by rearrangement, yields:
The initial slope of the reaction, dI(t)/dt, was measured within the first 5% of substrate turnover. The constants fP and fS were calculated from the slope of a line of fluorescence intensity versus concentration of P and S, respectively. A linear fit of a Hanes plot ([…]) was used to find Km and Vmax.

| Km [1] | Vmax [1] | Substance | Km [2] | Vmax [2] |
| --- | --- | --- | --- | --- |
| 1.8 ± 0.5 µM | 3.7 ± 1.6^f μmol/min/mg | Ac-Leu-Arg-Arg-Ala-Ser-Leu-Pro-Sox-NH2 (Ac-LRRASLP-{Sox-NH2}) [Ac-LRRAS*LP-Sox-NH2, Sox-containing peptide substrate (sensor) for PKA] |  |  |
|  |  | Ac-Sox-Pro-Gly-Ser-Phe-Arg-Arg-Arg-NH2 [Ac-Sox-PGS*FRRR-NH2] | 8.6 ± 2.9 µM | 5.9 ± 1.9^d μmol/min/mg |
|  |  | Ac-Sox-Pro-Gly-Thr-Phe-Arg-Arg-Arg-NH2 ({Ac-Sox}-PGTFRRR-NH2) [Ac-Sox-PGT*FRRR-NH2] | 23 ± 3 µM | 2.3 ± 0.6^d μmol/min/mg |
